Series [1] can be described thus: melting temperature (DSF); higher = more thermostable. In outline:
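On a Bio-Rad CFX96, fluorescence of 45 μL enzyme (0 to 0.3 mg/mL) mixed with 5 μL 5X Sypro Orange in sealed PCR plates was followed from 25 °C through 250 cycles of 0.3 °C, with a 0.3 °C/s ramp. The enzymes had been expressed in E. coli C41(DE3), taken up on nickel beads and released by SUMO protease. Melting temperature, measured by differential scanning fluorimetry, is the value given.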

Series [2] in a line: purified protein yield per well (BCA); higher = higher soluble expression. An outline of the steps: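 The measured quantity is purified protein yield per well, determined with the Pierce Rapid Gold BCA kit. Anything below 25 ug (0.1 mg/mL) lies under the detection threshold. Enzymes were expressed in E. coli C41(DE3) in 2 mL autoinduction cultures with 100 µg/mL kanamycin at 37 °C for 2 h, then 18 °C for 40 h, and purified on an OT-2 robot using Ni-charged magnetic beads and SUMO protease release.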

Series [3] in a line: PET hydrolysis, aromatic products released after 48 h (umol product/mg enzyme); higher = more PET depolymerization activity. An outline of the steps:
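PET hydrolysis activity was taken as the aromatic product in the supernatant and expressed per mg enzyme. This product was measured by absorbance at 260 and 280 nm against buffer blanks. Each reaction held 5 μg (50 μL) of tagless, SUMO-cleaved candidate enzyme purified on nickel beads, plus 3.5 mg amorphous PET film or crystalline PET powder in 450 μL buffer: 50 mM NaCitrate (pH 4.5, 5.5), 50 mM NaPhosphate (pH 6.5, 7.5) or glycine (pH 8.5). Plates were sealed and left 48 h at 40 or 60 °C without shaking.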

[4] abbreviates: substrate: cryPow, 40 °C, pH 4.5.
The mark [5] stands for this setting: substrate: cryPow, 40 °C, pH 5.5.
[6] abbreviates: substrate: cryPow, 40 °C, pH 6.5.
Where [7] appears, read: substrate: cryPow, 40 °C, pH 7.5.
Where [8] appears, read: substrate: cryPow, 60 °C, pH 4.5.
Where [9] appears, read: substrate: cryPow, 60 °C, pH 5.5.
Where [10] appears, read: substrate: cryPow, 60 °C, pH 6.5.
[11] abbreviates: substrate: cryPow, 60 °C, pH 7.5.
The mark [12] stands for this setting: substrate: aFilm, 40 °C, pH 4.5.
The mark [13] stands for this setting: substrate: aFilm, 40 °C, pH 5.5.
The mark [14] stands for this setting: substrate: aFilm, 40 °C, pH 6.5.
Where [15] appears, read: substrate: aFilm, 40 °C, pH 7.5.
Setting [16] is: substrate: aFilm, 60 °C, pH 4.5.
[17] abbreviates: substrate: aFilm, 60 °C, pH 5.5.
The mark [18] stands for this setting: substrate: aFilm, 60 °C, pH 6.5.
[19] abbreviates: substrate: aFilm, 60 °C, pH 7.5.

± gives the standard deviation of the averaged measurements. Some results are limits rather than exact numbers.

With “ADNPYQRGPDPTRTSVTAVNGPFANTSVSVPTGYGFNGGRIYYPTDTSQGTFGAIAISPGYTALFSAELAWMGPWLASHGFVVIGIETNSRNDFDTARGTQLLAALDYLTQQSPVRDRVDPNRLAVAGHSMGGGGALSAATRRSSLKAVVGIAPYSPSSNLANDRVPTMIFAGQADTVVTPSYATNLYNSLPTTTESVYLEVAGADHGFMVGRSNPVMVRTMLPFVKMFVDNDTRYSQFLCPLADSSGVVTYRSTCPLLPSTPTTPTATPTNTPTPTASPTVPPGSASQIVGTQSGRCIDVPNASHTNGTRVALYDCNRQSNQSWTYTSTKQLQVYGTMCLDAAGSGNGAAVQIYGCHSQTNQQWNVNSNGTISSVQSGRCLDVWSTANGAQVQLYDCHGQTNQQFRLVSLAR [ESM137]”, the melting temperature in series [1] stood at 62.2 C. For the same sequence, the “purified protein yield per well” value in series [2] came out at 140 µg. Moreover, the PET hydrolysis is 10 in series [3] (setting [4]); 18 in series [3] (setting [5]); 17 in series [3] (setting [6]); 8 in series [3] (setting [7]); under 3 in series [3] (setting [8]); under 3 in series [3] (setting [9]). Besides, the PET hydrolysis in series [3] (setting [10]) and in series [3] (setting [11]) was under 3 throughout.
As for “RPASAQDNPYERGPDPTVSSVAAQRGTFATAEVTVPPGNGFNGGKIYYPTDTSKGTWGAVAAVPGYTAKWAAEGAWMGPWLASFGFVVIGIDTNSPNDYDTARGTQLLAALDYLTQKSPVRDRVDPNRLGVIGHSMGGGGAISAAERRPSLKAALPLAPFSPSQNLSSLRVPTMIMGARDDGTVTPSYLNGLYAGMPAATPSAYIELTSGGHGFPTWGNSNVTRRTIPWLKIFLDNDTRYTQLLCPSPADRTGVSRSQVKCAYVPGGGTTPPPPSSGQIVGAASARCLDVPNSSQTNGTQLQLWDCLDQTSQKWARTDAGELRVYGNKCLDAEASGTSAGTRAIIWDCHGGQNQRWNVNANGTITSARSGLCLDANNAGTANGTQAILWTCNGGSNQRWTLR [TEP097]”, the melting temperature in series [1] amounted to 64.6 C. Further, in series [2], the “purified protein yield per well” value was 270 µg. The PET hydrolysis in series [3] (setting [12]), in series [3] (setting [13]), in series [3] (setting [14]), in series [3] (setting [15]), in series [3] (setting [16]) and in series [3] (setting [17]) was under 3 each time. Moreover, the PET hydrolysis is under 3 in series [3] (setting [18]); under 3 in series [3] (setting [19]); 8 in series [3] (setting [4]); 13 ± 1.4 in series [3] (setting [5]); 31 ± 7.1 in series [3] (setting [6]); 30.5 ± 2.1 in series [3] (setting [7]). Besides, the PET hydrolysis in series [3] (setting [8]) was under 3; in series [3] (setting [9]), 4.5 ± 0.71; in series [3] (setting [10]) it was 4.5 ± 0.71; in series [3] (setting [11]) it was 2 ± 2.8.
Turning to “ADNPYERGPAPTEASVEAPRGPYAVSETTVSPLAVTGFGGGTVYYPTSTADGTFGAIAVSPGYTGTQSSIAWLGPRLASQGFVVFTIDTLTTLDQPDSRGRQLLAALDYLTQKSSVRGRIDSTRLGVMGHSMGGGGSLEAAKSRPSLQAAIPLTPWNLDKTWPEVATPTLIFGADGDTIAPVATHAEPFYTSLPASLDRAYLELNGATHFTPNTSNTTIAKYSIAWLKRFIDDDTRYEQFLCPLPRPGLTIEEYRGNCPHTS [TEP117]”, the melting temperature in series [1] was 40 C. In series [2], the “purified protein yield per well” value was 202 µg. Moreover, the PET hydrolysis in series [3] (setting [12]), in series [3] (setting [13]), in series [3] (setting [14]), in series [3] (setting [15]), in series [3] (setting [16]) and in series [3] (setting [17]) was under 3 each time. The PET hydrolysis in series [3] (setting [18]), in series [3] (setting [19]), in series [3] (setting [4]), in series [3] (setting [5]), in series [3] (setting [6]) and in series [3] (setting [7]) was under 3 throughout. The PET hydrolysis in series [3] (setting [8]), in series [3] (setting [9]), in series [3] (setting [10]) and in series [3] (setting [11]) was under 3 each time.
In the case of “ASPYQRGPNPTAASIAATTGPFAIASITVPRGNGFGGGVIYYPTSTSQGTFGGIAISPGLNGTWSGISWLGPRLASQGFVVFGIETNNLNDSPTSRGTQLLAALDYLTQRSSVRSRLDANRLAVMGHSMGGGGALDAALRRPTLKATIGNAPHLPSGSLANDRVPTLIYAMQNDTLVTPARLTSLYNTIPAATERAYIEVTGAGHNYIGQPSTTLARTMIPWLKIFIDSDTRYAPFLCPLNDRSGIRQYRNSCPLI [ESM128]”, in series [1], the melting temperature was determined as 66.4 C. In series [2], the “purified protein yield per well” value stood at 407 µg. Further, the PET hydrolysis in series [3] (setting [12]) is under 3; in series [3] (setting [13]) it was under 3; in series [3] (setting [14]) it was under 3; in series [3] (setting [15]) it was 6; in series [3] (setting [16]), under 3; in series [3] (setting [17]) it was under 3. In addition, the PET hydrolysis in series [3] (setting [18]) is under 3; in series [3] (setting [19]), under 3; in series [3] (setting [4]), under 3; in series [3] (setting [5]), 43; in series [3] (setting [6]), 75 ± 1.4; in series [3] (setting [7]), 110 ± 4.2. Further, the PET hydrolysis in series [3] (setting [8]) is under 3; in series [3] (setting [9]), 4.5 ± 0.71; in series [3] (setting [10]), 18.5 ± 3.5; in series [3] (setting [11]), 41.5 ± 6.4.
Regarding “ADTPYERGPNPSESLIEQRRGNYDIAQRSISRFSSDGFRNGTIYYPTDTSDGKFGVIAISPGYTAGESSIAWLGSRIASFGFVVVTINTTTRYDQPRQRSTQLLAALDHAMNDSVVGPLIDPERQAVMGHSMGGGGALQAAESRPEIDAVVALTPWNLKKNWDGVDAATLIIGAERDTVASVRTHSIPFYESLTQAEQRGYLELRGASHFAPNVSNTTIAKYSIAWMKRYLDNDDRYDQFLNPGPAVGYASGVSDYRLQ [DP003]”, the melting temperature in series [1] came to 42.4 C. In addition, the “purified protein yield per well” value in series [2] amounted to 185 µg. The PET hydrolysis in series [3] (setting [13]) is under 3; in series [3] (setting [14]), under 3; in series [3] (setting [15]), under 3; in series [3] (substrate: aFilm, 40 °C, pH 8.5) it was 3 ± 4.2; in series [3] (setting [17]), under 3; in series [3] (setting [18]) it was under 3. Also, the PET hydrolysis was under 3 in series [3] (setting [19]); under 3 in series [3] (substrate: aFilm, 60 °C, pH 8.5); under 3 in series [3] (setting [5]); under 3 in series [3] (setting [6]); under 3 in series [3] (setting [7]); under 3 in series [3] (substrate: cryPow, 40 °C, pH 8.5). The PET hydrolysis in series [3] (setting [9]) is under 3; in series [3] (setting [10]), under 3; in series [3] (setting [11]), under 3; in series [3] (substrate: cryPow, 60 °C, pH 8.5) it was under 3.

(Values after the supplement of paper PMC12455559.)
